From publication PMC5557850

Tests used:
[1] = target: FapF coiled-coil peptide D3–Q40 (Pseudomonas sp. UK4); assay: SEC-MALS; Superdex 200 HR 10/30 column coupled to multiple laser light scattering; isolated coiled-coil peptide
[2] = target: full-length FapF (FapF 1–406) (Pseudomonas sp. UK4)
[3] = target: full-length FapF (FapF 1–406) (Pseudomonas sp. UK4); assay: native MS; 0.5 M ammonium acetate pH 7.6 with 0.5% C8E4; nano-electrospray, modified Q-Exactive

Row | stoichiometry N [1] | single-channel current recording in planar DPhPC bilayers: voltage-induced gating at an applied potential of −250 mV [2] [steps] | stoichiometry N [3] | Substance
1 | 3 | – | – | FapF coiled-coil peptide D3–Q40
2 | – | 3 | 3 | full-length FapF (FapF 1–406) (natural protein)
